From paper PMC3709774, “Preparation of Novel Poly(hydroxyethyl methacrylate-coglycidyl methacrylate)-Grafted Core-Shell Magnetic Chitosan Microspheres and Immobilization of Lactase” (International Journal of Molecular Sciences, 2013)

Substrate: O=[N+]([O-])c1ccccc1O[C@@H]1O[C@H](CO)[C@H](O)[C@H](O)[C@H]1O
Test: purified protein
Type: biochemical, Kluyveromyces lactis
Conditions: free enzyme, 37 °C, assay buffer 50 mM potassium phosphate, 1 mmol/L MgCl2, pH 6.5 (general activity assay), substrate range printed as 6.3-31.5 μmol/L, which conflicts with the mmol/L unit of Km

B1: lactase (DSM Maxilact 5000) (Kluyveromyces lactis NRRL Y-1140) (protein)
chain: MSCLIPENLRNPKKVHENRLPTRAYYYDQDIFESLNGPWAFALFDAPLDAPDAKNLDWETAKKWSTISVPSHWELQEDWKYGKPIYTNVQYPIPIDIPNPPTVNPTGVYARTFELDSKSIESFEHRLRFEGVDNCYELYVNGQYVGFNKGSRNGAEFDIQKYVSEGENLVVVKVFKWSDSTYIEDQDQWWLSGIYRDVSLLKLPKKAHIEDVRVTTTFVDSQYQDAELSVKVDVQGSSYDHINFTLYEPEDGSKVYDASSLLNEENGNTTFSTKEFISFSTKKNEETAFKINVKAPEHWTAENPTLYKYQLDLIGSDGSVIQSIKHHVGFRQVELKDGNITVNGKDILFRGVNRHDHHPRFGRAVPLDFVVRDLILMKKFNINAVRNSHYPNHPKVYDLFDKLGFWVIDEADLETHGVQEPFNRHTNLEAEYPDTKNKLYDVNAHYLSDNPEYEVAYLDRASQLVLRDVNHPSIIIWSLGNEACYGRNHKAMYKLIKQLDPTRLVHYEGDLNALSADIFSFMYPTFEIMERWRKNHTDENGKFEKPLILCEYGHAMGNGPGSLKEYQELFYKEKFYQGGFIWEWANHGIEFEDVSTADGKLHKAYAYGGDFKEEVHDGVFIMDGLCNSEHNPTPGLVEYKKVIEPVHIKIAHGSVTITNKHDFITTDHLLFIDKDTGKTIDVPSLKPEESVTIPSDTTYVVAVLKDDAGVLKAGHEIAWGQAELPLKVPDFVTETAEKAAKINDGKRYVSVESSGLHFILDKLLGKIESLKVKGKEISSKFEGSSITFWRPPTNNDEPRDFKNWKKYNIDLMKQNIHGVSVEKGSNGSLAVVTVNSRISPVVFYYGFETVQKYTIFANKINLNTSMKLTGEYQPPDFPRVGYEFWLGDSYESFEWLGRGPGESYPDKKESQRFGLYDSKDVEEFVYDYPQENGNHTDTHFLNIKFEGAGKLSIFQKEKPFNFKISDEYGVDEAAHACDVKRYGRHYLRLDHAIHGVGSEACGPAVLDQYRLKAQDFNFEFDLAFE
notes: commercial enzyme preparation, free (not immobilised)
**Q.** How did the Km turn out when B1 was run?
**A.** The Km was 25.4 mM.

**Q.** What about the kcat of the same protein?
**A.** Its kcat is 1182.9 s⁻¹.
